The text below walks through data of patent publication US10800813 (Bicycle, dated 2020).

The labels stand for the following.
B1: SEQ ID NO 115 (peptide)
peptide: CNWPARCTHQDLC
modifications: linker 1-7-13 via TBMB
B2: SEQ ID NO 162 (peptide)
peptide: CSWPARCLHDDLC
modifications: linker 1-7-13 via TBMB
B3: SEQ ID NO 119 (peptide)
peptide: CSWPARCTHDDLC
modifications: linker 1-7-13 via TBMB (inferred)
B4: SEQ ID NO 123 (peptide)
peptide: CTWPARCTHTDLC
modifications: linker 1-7-13 via TBMB (inferred)
B5: SEQ ID NO 116 (peptide)
peptide: CHWPARCTHQDLC
modifications: linker 1-7-13 via TBMB
B6: SEQ ID NO 118 (peptide)
peptide: CSWPARCTHADLC
modifications: linker 1-7-13 via TBMB
B7: SEQ ID NO 142 (peptide)
peptide: CAWPARCTHYDLC
modifications: linker 1-7-13 via TBMB (inferred)
B8: SEQ ID NO 127 (peptide)
peptide: CAWPARCTHVDLC
modifications: linker 1-7-13 via TBMB (inferred)
B9: SEQ ID NO 148 (peptide)
peptide: CTWPARCTHTDMC
modifications: linker 1-7-13 via TBMB (inferred)
B10: SEQ ID NO 125 (peptide)
peptide: CAWPARCLHDDLC
modifications: linker 1-7-13 via TBMB (inferred)
B11: SEQ ID NO 149 (peptide)
peptide: CAWPARCTHTHLC
modifications: linker 1-7-13 via TBMB (inferred)
B12: SEQ ID NO 128 (peptide)
peptide: CAWPARCTHTDFC
modifications: linker 1-7-13 via TBMB (inferred)
B13: SEQ ID NO 132 (peptide)
peptide: CQWPARCTHSDLC
modifications: linker 1-7-13 via TBMB (inferred)
B14: SEQ ID NO 133 (peptide)
peptide: CLWPARCTHADLC
modifications: linker 1-7-13 via TBMB (inferred)
B15: SEQ ID NO 134 (peptide)
peptide: CRWPARCTHQDLC
modifications: linker 1-7-13 via TBMB (inferred)
B16: SEQ ID NO 140 (peptide)
peptide: CHWPARCMHQDLC
modifications: linker 1-7-13 via TBMB (inferred)
B17: SEQ ID NO 117 (peptide)
peptide: CPWPARCTHQDLC
modifications: linker 1-7-13 via TBMB
B18: SEQ ID NO 129 (peptide)
peptide: CMWPARCMHQDLC
modifications: linker 1-7-13 via TBMB (inferred)
B19: SEQ ID NO 137 (peptide)
peptide: CSWPARCTHSHLC
modifications: linker 1-7-13 via TBMB (inferred)
B20: SEQ ID NO 143 (peptide)
peptide: CPWPARCTHQNLC
modifications: linker 1-7-13 via TBMB (inferred)
B21: SEQ ID NO 130 (peptide)
peptide: CAWPARCTHADLC
modifications: linker 1-7-13 via TBMB (inferred)
B22: SEQ ID NO 120 (peptide)
peptide: CAWPARCTHTDLC
modifications: linker 1-7-13 via TBMB (inferred)
B23: SEQ ID NO 156 (peptide)
peptide: CEWPARCLHTDLC
modifications: linker 1-7-13 via TBMB (inferred)
B24: SEQ ID NO 144 (peptide)
peptide: CSWPARCTHTELC
modifications: linker 1-7-13 via TBMB (inferred)
B25: SEQ ID NO 124 (peptide)
peptide: CHWPARCTHQELC
modifications: linker 1-7-13 via TBMB (inferred)
B26: SEQ ID NO 126 (peptide)
peptide: CSWPARCLHTDLC
modifications: linker 1-7-13 via TBMB (inferred)
B27: SEQ ID NO 163 (peptide)
peptide: CPWPARCLHTDLC
modifications: linker 1-7-13 via TBMB
B28: SEQ ID NO 147 (peptide)
peptide: CSWPARCIHQDLC
modifications: linker 1-7-13 via TBMB (inferred)
B29: SEQ ID NO 121 (peptide)
peptide: CQWPARCLHTDLC
modifications: linker 1-7-13 via TBMB (inferred)
B30: SEQ ID NO 139 (peptide)
peptide: CTWPARCTHADLC
modifications: linker 1-7-13 via TBMB (inferred)
B31: SEQ ID NO 122 (peptide)
peptide: CLWPARCTHQDLC
modifications: linker 1-7-13 via TBMB (inferred)
B32: SEQ ID NO 161 (peptide)
peptide: CSWPARCTHSDLC
modifications: linker 1-7-13 via TBMB
B33: SEQ ID NO 141 (peptide)
peptide: CPWPARCTHTDLC
modifications: linker 1-7-13 via TBMB (inferred)
B34: SEQ ID NO 145 (peptide)
peptide: CAWPARCMHDDLC
modifications: linker 1-7-13 via TBMB (inferred)
B35: SEQ ID NO 138 (peptide)
peptide: CVWPARCTHQDLC
modifications: linker 1-7-13 via TBMB (inferred)
B36: SEQ ID NO 159 (peptide)
peptide: CRWPARCTHTDLC
modifications: linker 1-7-13 via TBMB
B37: SEQ ID NO 146 (peptide)
peptide: CSWPARCLHTELC
modifications: linker 1-7-13 via TBMB (inferred)
B38: SEQ ID NO 135 (peptide)
peptide: CQWPARCMHQELC
modifications: linker 1-7-13 via TBMB (inferred)
B39: SEQ ID NO 136 (peptide)
peptide: CTWPARCLHQDLC
modifications: linker 1-7-13 via TBMB (inferred)
B40: SEQ ID NO 151 (peptide)
peptide: CAWPARCLHQDWC
modifications: linker 1-7-13 via TBMB (inferred)
B41: SEQ ID NO 153 (peptide)
peptide: CAWPARCTHQTMC
modifications: linker 1-7-13 via TBMB (inferred)
B42: SEQ ID NO 131 (peptide)
peptide: CQWPARCMHQDMC
modifications: linker 1-7-13 via TBMB (inferred)
B43: SEQ ID NO 155 (peptide)
peptide: CSWPARCVHQDMC
modifications: linker 1-7-13 via TBMB (inferred)
B44: SEQ ID NO 154 (peptide)
peptide: CTWPARCLHQHMC
modifications: linker 1-7-13 via TBMB (inferred)
B45: SEQ ID NO 157 (peptide)
peptide: CLWPARCLTTELC
modifications: linker 1-7-13 via TBMB (inferred)
B46: SEQ ID NO 152 (peptide)
peptide: CDWPARCMHQEFC
modifications: linker 1-7-13 via TBMB (inferred)
B47: SEQ ID NO 150 (peptide)
peptide: CAWPARCLHADMC
modifications: linker 1-7-13 via TBMB (inferred)

Numbered stars: 1 amine (or outer) side, 2 acyl side, 3 side chain; on linkers, the order of the positions; unused ones are H or OH. Bridge positions count the residues as written; N and C are the ends. Ends that are not written are not given here. TBMB = c1c(C[*:1])cc(C[*:3])cc1C[*:2]

The target of this experiment is T1, biotinylated human plasma Kallikrein (human, UniProt P03952 20-638, biotinylated).
T1 construct: also called Biotinylated hPK
T1 sequence (P03952 20-638 limits assumed): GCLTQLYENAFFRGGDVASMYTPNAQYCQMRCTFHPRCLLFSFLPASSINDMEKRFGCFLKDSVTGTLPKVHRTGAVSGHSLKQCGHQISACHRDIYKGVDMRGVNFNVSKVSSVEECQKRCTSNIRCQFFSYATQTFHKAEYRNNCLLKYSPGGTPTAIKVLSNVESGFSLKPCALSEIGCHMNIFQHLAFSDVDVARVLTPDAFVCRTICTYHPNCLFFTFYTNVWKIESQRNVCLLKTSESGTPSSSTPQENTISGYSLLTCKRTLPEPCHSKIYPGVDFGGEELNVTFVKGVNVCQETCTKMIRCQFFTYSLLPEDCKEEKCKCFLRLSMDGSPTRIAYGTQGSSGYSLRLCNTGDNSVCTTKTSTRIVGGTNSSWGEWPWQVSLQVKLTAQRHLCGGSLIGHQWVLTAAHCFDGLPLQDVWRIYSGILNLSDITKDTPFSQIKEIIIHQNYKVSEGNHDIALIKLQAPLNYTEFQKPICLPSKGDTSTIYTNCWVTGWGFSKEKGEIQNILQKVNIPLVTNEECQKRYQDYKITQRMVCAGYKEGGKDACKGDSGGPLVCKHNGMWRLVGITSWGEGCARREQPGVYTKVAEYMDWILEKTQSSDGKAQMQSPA
Briefly: phage binding assay, signal:background. The procedure:
Library transformant colonies, or selection output colonies, were picked and grown as individual cultures in 2TY broth containing selective antibiotic. The picked colonies were DNA-sequenced using a QIAgen PyroMark Q96 DNA sequencer to reveal the amino-acid substitution present in each clone, and were assayed for human plasma Kallikrein binding as follows. The phage-containing supernatant was harvested from the culture and phage were cyclised with tris bromomethyl benzene(TBMB) based on the methods of Heinis et al (Nature Chemical Biology vol. 5 pp 502-507 (2009)). The purified phage from this process were assayed for binding to biotinylated human plasma Kallikrein using a homogeneous plate-based binding assay; assay read-out measured on a BMG Labtech Pherastar FS plate reader. The quantitative binding data from duplicate assay samples was averaged (mean) and expressed as signal:background. […] The assay data was correlated with the peptide sequences.
Selections against human plasma Kallikrein were performed with this library in order to study the non-WPAR (SEQ ID NO: 18) determinants of Kallikrein binding, and to isolate the optimal WPAR (SEQ ID NO: 18)-containing peptide sequence.
The molecule B1 had a Binding assay signal of 116.
In turn, B2 showed a Binding assay signal of 59.
Regarding B3, the Binding assay signal amounted to 93.
The result for B4 reads 88.
The result for B5 reads 110; that for B6, 100.
The molecule B7 returned a Binding assay signal of 70.
The result for B8 reads 82.
B9 gave a Binding assay signal of 67.
The result for B10 reads 84; that for B11, 66.
B12 returned a Binding assay signal of 80.
In turn, B13 came in with a Binding assay signal of 74.
Molecule B14 returned a Binding assay signal of 74.
Then B15, with 73; and B16, with 71; and B17, with 107.
Then B18, with 79; and B19, with 72.
Then B20, with 69.
B21 yielded a Binding assay signal of 79.
On to B22, for which the Binding assay signal amounted to 92.
As for B23, the Binding assay signal was 60.
As for B24, the Binding assay signal was found to be 69.
Turning to B25, the Binding assay signal was 85.
B26 displayed a Binding assay signal of 83.
The result for B27 reads 58; that for B28, 68.
As for B29, the Binding assay signal came out at 91.
Then B30, with 71; and B31, with 90; and B32, with 59.
Molecule B33 showed a Binding assay signal of 70.
The molecule B34 registered a Binding assay signal of 69.
Then B35, with 71.
Consider B36, for which the Binding assay signal amounted to 59.
Then B37, with 68; and B38, with 73.
Molecule B39 returned a Binding assay signal of 73.
Then B40, with 63; and B41, with 61.
For B42, the Binding assay signal turned out to be 75.
Then B43, with 61.
The result for B44 reads 61; that for B45, 59.
Molecule B46 came in with a Binding assay signal of 63.
For the molecule B47, the Binding assay signal came out at 66.
